These results are taken from PMC10207894, “A MOF/DNA luminescent sensing platform for detection of potential COVID-19 biomarkers and drugs†”.

This data set concerns the target interleukin-10 (IL-10) (UniProt P22301 19-178). In words: luminescence quenching on Y-MOF; 1 uM protein; no obvious quenching at 514 nm; Y-MOF suspension 0.1 g/L (900 uL) mixed with 1 uM DNA (100 uL) 30 min; excitation 380 nm, IL-6 0-14.4 nM; buffer, salt, pH and temperature not stated. The note with it: protein: commercial; chain copies: 2; label: 5'-FAM; stem-loop.

interleukin-10 (IL-10), sequence (P22301 19-178): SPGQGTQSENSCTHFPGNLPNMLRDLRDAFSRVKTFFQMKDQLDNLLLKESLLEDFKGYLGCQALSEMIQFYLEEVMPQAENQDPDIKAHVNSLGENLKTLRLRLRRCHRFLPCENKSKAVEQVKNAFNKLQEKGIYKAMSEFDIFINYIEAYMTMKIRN

B1: S2 (extended IL-6 aptamer) (structured_DNA)
DNA: TTTTTTTAAGCTTACCTGCCATGCCAGTACCCCCAGGAGAAGATTCCAAAGATGTGGCCGCCCCACAAAAAAAA
B1: the binding result is recorded as “no binding”.
